{"source": "patent US20250297216A1", "about": "“METHOD FOR PRODUCING MILK LIKE PRODUCTS” (SOCIETE DES PRODUITS NESTLE S.A., priority 2021, published 2025)", "molecules": {"B1": {"name": "BMP4: bone morphogenetic protein 4, growth factor added to the culture medium (protein, UniProt P12644 293-408, looked up)", "Bone morphogenetic protein 4": "SPKHHSQRARKKNKNCRRHSLYVDFSDVGWNDWIVAPPGYQAFYCHGDCPFPLADHLNSTNHAIVQTLVNSVNSSIPKACCVPTELSAISMLYLDEYDKVVLKNYQEMVVEGCGCR"}}, "test_system": "iPSCs derived mammary gland organoids", "experiment": "Flow cytometry quantification of mammary gland progenitor markers in 3D iPSC differentiation (42-day and shortened 31-day protocols)", "assay_type": "cell-based, human", "settings": "20 ng/ml BMP4, 1 μM RA, single or combination, 42 days and 31 days protocols, compared to control condition", "description": "Scheme summarizing different procedures for the generation of mammary gland progenitors in 42 days (a), using bone morphogenetic protein 4 (BMP4) (b), retinoic acid (RA) (c), combinations of BMP4 and RA (d) and their combination in shortened time-course (31 days) (e). The red boxes indicate the period of addition of BMP4 and/or RA."}
{"molecule": "B1", "values": [{"measurement": "expression of mammary gland progenitor markers (EpCAM, CD49f, MUC1, GATA3)", "result": "can induce the expression of mammary gland progenitor markers"}]}
